Test results published in patent US20220017617A1 (SHANGHAI EPIMAB BIOTHERAPEUTICS, published 2022).

Columns and labels:
[1] = molecular target: T1, recombinant human PD-L1 (Novoprotein) (human, UniProt Q9NZQ7 19-239, limits assumed); test: BLI (Octet RED96), antibody captured on anti-human IgG Fc sensors, antigen in solution, 1:1 fit
T1 construct: Bought reagent; also called Programmed Death Ligand 1; CD274
Protocol: (§1) Briefly, each parental mAb and FIT-Ig was characterized for affinities and binding kinetics by Octet®RED96 biolayer interferometry (Pall FortéBio LLC). Each parental mAb and FIT-Ig were captured by Anti-Human IgG Fc Capture (AHC) Biosensors (Pall) at a concentration of 100 nM for 30 seconds. Sensors were then dipped into running buffer (1X, pH 7.2, PBS, 0.05% Tween 20, 0.1% BSA) for 60 seconds to check baseline. Binding was measured by dipping sensors into […] recombinant human PD-L1 (Novoprotein) or recombinant human EGFR (Sino Biological Inc) both ranging from 1 nM to 200 nM. Dissociation was followed by dipping sensors into running buffer for 1200 seconds. The association and dissociation curves were fitted to a 1:1 Langmuir binding model using ForteBio Data Analysis software (Pall).

[2] = molecular target: T1, recombinant human PD-L1 (Novoprotein); test: BLI (Octet RED96), FIT-Ig captured on anti-human IgG Fc sensors, antigen in solution, 1:1 fit
Protocol: as §1

[3] = molecular target: T2, recombinant human EGFR (Sino Biological Inc) (human, UniProt P00533 25-645); test: as above
T2 construct: Bought reagent; also called epidermal growth factor receptor
Protocol: as §1

[4] = molecular target: T1, recombinant human PD-L1 (Novoprotein); test: BLI (Octet RED96), comparison of KD values
Protocol: as §1

[5] = molecular target: T2, recombinant human EGFR (Sino Biological …); test: BLI (Octet RED96), comparison of KD values
Protocol: as §1

T1 sequence (Q9NZQ7 19-239 limits assumed): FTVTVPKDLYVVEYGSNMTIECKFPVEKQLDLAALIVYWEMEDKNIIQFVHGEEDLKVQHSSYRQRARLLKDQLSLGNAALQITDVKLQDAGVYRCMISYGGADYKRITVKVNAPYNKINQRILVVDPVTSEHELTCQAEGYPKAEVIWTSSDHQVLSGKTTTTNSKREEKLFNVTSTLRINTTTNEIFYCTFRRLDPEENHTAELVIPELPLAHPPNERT

B1: anti-PD-L1 monoclonal antibody 3G10 (parental) (antibody, V domains shown)
VH: QVQLVQSGAEVKKPGASVKVSCKASGYTFTDYGFSWVRQAPGQGLEWMGWITAYNGNTNYAQKLQGRVTMTTDTSTSTVYMELRSLRSDDTAVYYCARDYFYGMDVWGQGTTVTVSS
VL: EIVLTQSPATLSLSPGERATLSCRASQSVSSYLVWYQQKPGQAPRLLIYDASNRATGIPARFSGSGSGTDFTLTISSLEPEDFAVYYCQQRSNWPRTFGQGTKVEIK
notes: It was captured by anti-human IgG Fc sensors; also called mAb 3G10; parental anti-PD-L1 mAb 3G10
[1]
  Kd: 12.5 nM
  koff: 0.0122 s⁻¹
  kon: 979000 M⁻¹ s⁻¹

B2: PD-L1/EGFR FIT-Ig5 (bispecific antibody, human IgG1, kappa)
heavy: not shown
chain: QVQLVQSGAEVKKPGASVKVSCKASGYTFTDYGFSWVRQAPGQGLEWMGWITAYNGNTNYAQKLQGRVTMTTDTSTSTVYMELRSLRSDDTAVYYCARDYFYGMDVWGQGTTVTVSSASTKGPSVFPLAPSSKSTSGGTAALGCLVKDYFPEPVTVSWNSGALTSGVHTFPAVLQSSGLYSLSSVVTVPSSSLGTQTYICNVNHKPSNTKVDKKVEPKSC
light: not shown
notes: Six-chain hexamer with no linkers; Human IgG1 Fc
[2]
  Kd: 11.1 nM
  koff: 0.0156 s⁻¹
  kon: 1.4e+06 M⁻¹ s⁻¹
[3]
  Kd: 0.379 nM
  koff: 6.14e-05 s⁻¹
  kon: 162000 M⁻¹ s⁻¹

B3: EGFR/PD-L1 FIT-Ig6 (bispecific antibody, human IgG1, kappa)
heavy: not shown
chain: QVQLQESGPGLVKPSETLSLTCTVSGGSVSSGDYYWTWIRQSPGKGLEWIGHIYYSGNTNYNPSLKSRLTISIDTSKTQFSLKLSSVTAADTAIYYCVRDRVTGAFDIWGQGTMVTVSSASTKGPSVFPLAPSSKSTSGGTAALGCLVKDYFPEPVTVSWNSGALTSGVHTFPAVLQSSGLYSLSSVVTVPSSSLGTQTYICNVNHKPSNTKVDKKVEPKSC
light: not shown
notes: as for B2
[2]
  Kd: 16.3 nM
  koff: 0.0144 s⁻¹
  kon: 886000 M⁻¹ s⁻¹
[3]
  Kd: 0.491 nM
  koff: 0.000107 s⁻¹
  kon: 218000 M⁻¹ s⁻¹
[4]
  KD higher than that of the parental mAb 3G10: ~30%
[5]
  KD lower than that of the parental panitumumab: ~25%
